Test results from patent publication US8329178B2, “Antibodies against CXCR4 and methods of use thereof” (Dana-Farber Cancer Institute, Inc., dated 2012).

B1: 33-IgG1 (antibody, V domains shown)
VH: QVTLKESGGGVVQPGRSLRLSCAASGFTFTNYGLHWVRQAPGKGLEWVAVISHDGTKKYYADSVKGRFTISRDSSENTLYLQMNSLRPEDSALYYCARDGGYCSGGRCYSYGMDVWGQGTTVTVSS
VL: QSVLTQPPSASGTPGQRVTISCSGSRSNIGSNTVNWYQQLPGTAPKLLIYTNNQRPSGVPDRFSGSKSGTSASLAITGLQAEDEADYYCLSFDSSLTSYVFGTGTKVTVLG
B2: 48-IgG1 (antibody, V domains shown)
VH: QVQLVQSGGGVVLPGRSLRLSCVASGFTFRRYGMHWVRQAPGKGLEWVSLISYDGSKTFYGESVKGRFTISRDNSKNTLYLQMNSLRAEDTAVYYCARATVTTDGYYYMDVWGKGTTVTVSS
VL: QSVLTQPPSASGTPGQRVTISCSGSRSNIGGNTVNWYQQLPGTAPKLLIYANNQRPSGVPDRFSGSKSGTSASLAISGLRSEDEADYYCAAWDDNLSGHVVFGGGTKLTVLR

Target: CXCR2/CXCR4 chimera 4442 (human, UniProt P61073)
Assay: FACS, 293T cells expressing CXCR4 variants

Row | Binder | binding to cells expressing the variant (+%)
1 | B1 | 99.5%
2 | B2 | 91.9%
